System: F1*sub RNA substrate (template-directed ligation)
Assay: fraction ligated after 30 min (ligated reads / total reads); higher = more ligase activity; sequences stand for … in GAGACCGCAACTGAAAAGTTGT…AGTTCTGCACGTAGAAGCAAAAGGC
Conditions: 42 °C
Method in brief: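 Templates from an oligo pool were PCR-amplified, transcribed with T7 and gel-purified to give the ribozyme variants. Ligated and unligated products were separated on gel, reverse transcribed using barcoded primers, and read on a MiSeq. A quality filter of ≥20 was applied to core bases. Fraction ligated was taken as ligated reads as a share of all reads per variant.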

Sequence	fraction ligated
TATCACTTGTCTAAACACTTTGGATGGGTTG [3d1845]	0.792
TATCACTTGTCTAAACACTTTGGATGGTTGA [3d1843]	0.288
TATCACTTGTCTAAACACTTTGGTGGGTTGA [3d1841]	0.116
TATCACTTGTCTAAACATTTGGATGGGTTGA [3d1838]	0.841
TATCACTTGTCTAAACCTTTGGATGGGTTGA [3d1837]	0.789
TATCACTTGTCTAACACTTTGGATGGGTTGA [3d1824]	0.8
TATCACTTGTCTAAGAACTTGGATGGGTTGA [3d1857]	0.771
TATCACTTGTCTAAGAACTTTGATGGGTTGA [3d1858]	0.777
TATCACTTGTCTAAGAACTTTGGAGGGTTGA [3d1860]	0.108
TATCACTTGTCTAAGAACTTTGGATGGGTTA [3d1862]	0.735
TATCACTTGTCTAAGAACTTTGGATGGGTTG [3d1863]	0.782
TATCACTTGTCTAAGAACTTTGGATGGTTGA [3d1861]	0.166
TATCACTTGTCTAAGAACTTTGGTGGGTTGA [3d1859]	0.162
TATCACTTGTCTAAGAATTTGGATGGGTTGA [3d1856]	0.794
TATCACTTGTCTAAGACACTGGATGGGTTGA [3d1878]	0.787
TATCACTTGTCTAAGACACTTGATGGGTTGA [3d1879]	0.708
TATCACTTGTCTAAGACACTTGGAGGGTTGA [3d1881]	0.0594
TATCACTTGTCTAAGACACTTGGATGGGTTA [3d1883]	0.701
TATCACTTGTCTAAGACACTTGGATGGGTTG [3d1884]	0.781
TATCACTTGTCTAAGACACTTGGATGGTTGA [3d1882]	0.12
TATCACTTGTCTAAGACACTTGGTGGGTTGA [3d1880]	0.113

Sequence	fraction ligated
TATCACTTGTCTAAGACACTTTATGGGTTGA [3d1885]	0.171
TATCACTTGTCTAAGACACTTTGAGGGTTGA [3d1887]	0.0527
TATCACTTGTCTAAGACACTTTGATGGGTTA [3d1889]	0.162
TATCACTTGTCTAAGACACTTTGATGGGTTG [3d1890]	0.751
TATCACTTGTCTAAGACACTTTGATGGTTGA [3d1888]	0.0589
TATCACTTGTCTAAGACACTTTGGAGGGTTA [3d1896]	0.134
TATCACTTGTCTAAGACACTTTGGAGGGTTG [3d1897]	0.0676
TATCACTTGTCTAAGACACTTTGGAGGTTGA [3d1895]	0.095
TATCACTTGTCTAAGACACTTTGGATGGGTT [3d1900]	0.747
TATCACTTGTCTAAGACACTTTGGATGGGTTA [2d206]	0.803
TATCACTTGTCTAAGACACTTTGGATGGGTTG [2d207]	0.825
TATCACTTGTCTAAGACACTTTGGATGGGTTGA [1d11]	0.818
TATCACTTGTCTAAGACACTTTGGATGGTTA [3d1898]	0.372
TATCACTTGTCTAAGACACTTTGGATGGTTG [3d1899]	0.408
TATCACTTGTCTAAGACACTTTGGATGGTTGA [2d205]	0.588
TATCACTTGTCTAAGACACTTTGGGGGTTGA [3d1891]	0.118
TATCACTTGTCTAAGACACTTTGGTGGGTTA [3d1893]	0.104
TATCACTTGTCTAAGACACTTTGGTGGGTTG [3d1894]	0.0778
TATCACTTGTCTAAGACACTTTGGTGGTTGA [3d1892]	0.104
TATCACTTGTCTAAGACACTTTGTGGGTTGA [3d1886]	0.044
TATCACTTGTCTAAGACATTGGATGGGTTGA [3d1871]	0.796

Sequence	fraction ligated
TATCACTTGTCTAAGACATTTGATGGGTTGA [3d1872]	0.345
TATCACTTGTCTAAGACATTTGGAGGGTTGA [3d1874]	0.0252
TATCACTTGTCTAAGACATTTGGATGGGTTA [3d1876]	0.793
TATCACTTGTCTAAGACATTTGGATGGGTTG [3d1877]	0.824
TATCACTTGTCTAAGACATTTGGATGGTTGA [3d1875]	0.137
TATCACTTGTCTAAGACATTTGGTGGGTTGA [3d1873]	0.0508
TATCACTTGTCTAAGACCTTGGATGGGTTGA [3d1864]	0.762
TATCACTTGTCTAAGACCTTTGATGGGTTGA [3d1865]	0.732
TATCACTTGTCTAAGACCTTTGGAGGGTTGA [3d1867]	0.202
TATCACTTGTCTAAGACCTTTGGATGGGTTA [3d1869]	0.732
TATCACTTGTCTAAGACCTTTGGATGGGTTG [3d1870]	0.755
TATCACTTGTCTAAGACCTTTGGATGGTTGA [3d1868]	0.269
TATCACTTGTCTAAGACCTTTGGTGGGTTGA [3d1866]	0.227
TATCACTTGTCTAAGACTTTGGATGGGTTGA [3d1846]	0.786
TATCACTTGTCTAAGCACTTGGATGGGTTGA [3d1849]	0.766
TATCACTTGTCTAAGCACTTTGATGGGTTGA [3d1850]	0.724
TATCACTTGTCTAAGCACTTTGGAGGGTTGA [3d1852]	0.128
TATCACTTGTCTAAGCACTTTGGATGGGTTA [3d1854]	0.712
TATCACTTGTCTAAGCACTTTGGATGGGTTG [3d1855]	0.75
TATCACTTGTCTAAGCACTTTGGATGGTTGA [3d1853]	0.165
TATCACTTGTCTAAGCACTTTGGTGGGTTGA [3d1851]	0.108

Sequence	fraction ligated
TATCACTTGTCTAAGCATTTGGATGGGTTGA [3d1848]	0.818
TATCACTTGTCTAAGCCTTTGGATGGGTTGA [3d1847]	0.776
TATCACTTGTCTAGAACTTTGGATGGGTTGA [3d1826]	0.796
TATCACTTGTCTAGACACTTGGATGGGTTGA [3d1829]	0.796
TATCACTTGTCTAGACACTTTGATGGGTTGA [3d1830]	0.739
TATCACTTGTCTAGACACTTTGGAGGGTTGA [3d1832]	0.218
TATCACTTGTCTAGACACTTTGGATGGGTTA [3d1834]	0.738
TATCACTTGTCTAGACACTTTGGATGGGTTG [3d1835]	0.76
TATCACTTGTCTAGACACTTTGGATGGGTTGA [2d195]	0.799
TATCACTTGTCTAGACACTTTGGATGGTTGA [3d1833]	0.361
TATCACTTGTCTAGACACTTTGGTGGGTTGA [3d1831]	0.195
TATCACTTGTCTAGACATTTGGATGGGTTGA [3d1828]	0.814
TATCACTTGTCTAGACCTTTGGATGGGTTGA [3d1827]	0.737
TATCACTTGTCTAGCACTTTGGATGGGTTGA [3d1825]	0.754
TATCACTTGTCTGACACTTTGGATGGGTTGA [3d1823]	0.77
TATCACTTGTGAAACACTTTGGATGGGTTGA [3d1719]	0.842
TATCACTTGTGAAGAACTTTGGATGGGTTGA [3d1721]	0.851
TATCACTTGTGAAGACACTTGGATGGGTTGA [3d1724]	0.801
TATCACTTGTGAAGACACTTTGATGGGTTGA [3d1725]	0.818

Source: the supplement of paper PMC6755084
